In paper PMC12661447, “Cyanophycinase is required for heterotrophy in cyanobacteria” (The Journal of Biological Chemistry, 2025):

Target: T1, cyanophycinase (CphB) (Synechocystis sp. PCC 6803 (endogenous …, UniProt P73832 1-271))
T1 sequence (looked up): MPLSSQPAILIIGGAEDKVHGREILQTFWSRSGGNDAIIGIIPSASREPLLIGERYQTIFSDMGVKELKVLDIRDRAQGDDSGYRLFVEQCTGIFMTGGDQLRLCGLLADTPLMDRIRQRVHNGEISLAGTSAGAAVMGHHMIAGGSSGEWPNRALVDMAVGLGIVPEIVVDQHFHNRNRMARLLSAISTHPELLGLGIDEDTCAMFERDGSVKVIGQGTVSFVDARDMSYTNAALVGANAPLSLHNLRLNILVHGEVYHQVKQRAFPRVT
Assay: cell-based or functional assay

in vitro activity of recombinant CphB-His (2 μM; degradation of cyanophycin, β-Asp-Arg dipeptide at 2 min by LC-HRMS) with recombinant ArgD-His added in a 1:1 ratio against without ArgD (BSA control): ~2 fold
B1: FLAG-tagged variant of ArgD (acetylornithine aminotransferase) (enzyme, Synechocystis sp. PCC 6803, UniProt P73133 1-429, looked up)
chain: MTYSPVVESVEAQAFAVTDLSPAAEFKTADFDTYVMNTYGRFPIAIARGQGSTLWDTEGKSYLDFVAGIATCTLGHAHPALVRAVSDQIQKLHHVSNLYYIPEQGELAKWIVEHSCADRVFFCNSGAEANEAAIKLVRKYAHTVLDFLEQPVILTAKASFHGRTLATITATGQPKYQQYFDPLVPGFDYVPYNDIRSLENKVADLDEGNSRVAAIFLEPLQGEGGVRPGDLAYFKRVREICDQNDILLVFDEVQVGVGRTGKLWGYEHLGVEPDIFTSAKGLAGGVPIGAMMCKKFCDVFEPGNHASTFGGNPLACAAGLAVLKTIEGDRLLDNVQARGEQLRSGLAEIKNQYPTLFTEVRGWGLINGLEISAESSLTSVEIVKAAMEQGLLLAPAGPKVLRFVPPLVVTEAEIAQAVEILRQAIATLV
